Target: Fbxl17 (UniProt Q9UF56)
Assay: HA-Sufu IP, Myc-Fbxl17 blot
Conditions: reference: Sufu wild type; sites S342,S346

How did the “binding against the reference” value turn out when “Sufu (from UniProt Q9UMX1) Sufu S342A/S346A” was run?
The value was “stronger”.
